The values that follow are results of earlier work, collected in US12377133B2 (Ascendis Pharma Growth Disorders A/S, priority 2019, dated 2025).

For the series the following is noted: Lorget et al. 2012.

Bridges are numbered along the chain shown (N, C = ends). Where no end group is shown, it is not given here.

With “BMN111: recombinant CNP-39: 37 C-terminal amino acids of human CNP-53 plus glycine and proline added at the N-terminus (PGQEHPNARKYKGANKKGLSKGCFGLKLDRIGSMSGLGC; disulfide 23-39; chains of the INN, looked up)”, the half-life is 20 min.
